Results reported in US20240287139.

B1: MtbGyrase with MtbGyrAP353L (protein)
chain 1: TDTTLPPDDSLDRIEPVDIEQEMQRSYIDYAMSVIVGRALPEVRDGLKPVHRRVLYAMFDSGFRPDRSHAKSARSVAETMGNYHPHGDASIYDSLVRMAQPWSLRYPLVDGQGNFGSPGNDPPAAMRYTEARLTPLAMEMLREIDEETVDFIPNYDGRVQEPTVLPSRFPNLLANGSGGIAVGMATNIPPHNLRELADAVFWALENHDADEEETLAAVMGRVKGPDFPTAGLIVGSQGTADAYKTGRGSIRMRGVVEVEEDSRGRTSLVITELPYQVNHDNFITSIAEQVRDGKLAGISNIEDQSSDRVGLRIVIEIKRDAVAKVVINNLYKHTQLQTSFGANMLAIVDGVLRTLRLDQLIRYYVDHQLDVIVRRTTYRLRKANERAHILRGLVKALDALDEVIALIRASETVDIARAGLIELLDIDEIQAQAILDMQLRRLAALERQRIIDDLAKIEAEIADLEDILAKPERQRGIVRDELAEIVDRHGDDRRTRIIAADGDVSDEDLIAREDVVVTITETGYAKRTKTDLYRSQKRGGKGVQGAGLKQDDIVAHFFVCSTHDLILFFTTQGRVYRAKAYDLPEASRTARGQHVANLLAFQPEERIAQVIQIRGYTDAPYLVLATRNGLVKKSKLTDFDSNRSGGIVAVNLRDNDELVGAVLCSAGDDLLLVSANGQSIRFSATDEALRPMGRATSGVQGMRFNIDDRLLSLNVVREGTYLLVATSGGYAKRTAIEEYPVQGRGGKGVLTVMYDRRRGRLVGALIVDDDSELYAVTSGGGVIRTAARQVRKAGRQTKGVRLMNLGEGDTLLAIARNAEESGDDNAVDANGADQTGN
chain 2: MAAQKKKAQDEYGAASITILEGLEAVRKRPGMYIGSTGERGLHHLIWEVVDNAVDEAMAGYATTVNVVLLEDGGVEVADDGRGIPVATHASGIPTVDVVMTQLHAGGKFDSDAYAISGGLHGVGVSVVNALSTRLEVEIKRDGYEWSQVYEKSEPLGLKQGAPTKKTGSTVRFWADPAVFETTEYDFETVARRLQEMAFLNKGLTINLTDERVTQDEVVDEVVSDVAEAPKSASERAAESTAPHKVKSRTFHYPGGLVDFVKHINRTKNAIHSSIVDFSGKGTGHEVEIAMQWNAGYSESVHTFANTINTHEGGTHEEGFRSALTSVVNKYAKDRKLLKDKDPNLTGDDIREGLAAVISVKVSEPQFEGQTKTKLGNTEVKSFVQKVCNEQLTHWFEANPTDAKVVVNKAVSSAQARIAARKARELVRRKSATDIGGLPGKLADCRSTDPRKSELYVVEGDSAGGSAKSGRDSMFQAILPLRGKIINVEKARIDRVLKNTEVQAIITALGTGIHDEFDIGKLRYHKIVLMADADVDGQHISTLLLTLLFRFMRPLIENGHVFLAQPPLYKLKWQRSDPEFAYSDRERDGLLEAGLKAGKKINKEDGIQRYKGLGEMDAKELWETTMDPSVRVLRQVTLDDAAAADELFSILMGEDVDARRSFITRNAKDVRFLDV
B2: MtbGyrase with MtbGyrAA32V (protein)
chain 1: TDTTLPPDDSLDRIEPVDIEQEMQRSYIDYVMSVIVGRALPEVRDGLKPVHRRVLYAMFDSGFRPDRSHAKSARSVAETMGNYHPHGDASIYDSLVRMAQPWSLRYPLVDGQGNFGSPGNDPPAAMRYTEARLTPLAMEMLREIDEETVDFIPNYDGRVQEPTVLPSRFPNLLANGSGGIAVGMATNIPPHNLRELADAVFWALENHDADEEETLAAVMGRVKGPDFPTAGLIVGSQGTADAYKTGRGSIRMRGVVEVEEDSRGRTSLVITELPYQVNHDNFITSIAEQVRDGKLAGISNIEDQSSDRVGLRIVIEIKRDAVAKVVINNLYKHTQLQTSFGANMLAIVDGVPRTLRLDQLIRYYVDHQLDVIVRRTTYRLRKANERAHILRGLVKALDALDEVIALIRASETVDIARAGLIELLDIDEIQAQAILDMQLRRLAALERQRIIDDLAKIEAEIADLEDILAKPERQRGIVRDELAEIVDRHGDDRRTRIIAADGDVSDEDLIAREDVVVTITETGYAKRTKTDLYRSQKRGGKGVQGAGLKQDDIVAHFFVCSTHDLILFFTTQGRVYRAKAYDLPEASRTARGQHVANLLAFQPEERIAQVIQIRGYTDAPYLVLATRNGLVKKSKLTDFDSNRSGGIVAVNLRDNDELVGAVLCSAGDDLLLVSANGQSIRFSATDEALRPMGRATSGVQGMRFNIDDRLLSLNVVREGTYLLVATSGGYAKRTAIEEYPVQGRGGKGVLTVMYDRRRGRLVGALIVDDDSELYAVTSGGGVIRTAARQVRKAGRQTKGVRLMNLGEGDTLLAIARNAEESGDDNAVDANGADQTGN
chain 2: MAAQKKKAQDEYGAASITILEGLEAVRKRPGMYIGSTGERGLHHLIWEVVDNAVDEAMAGYATTVNVVLLEDGGVEVADDGRGIPVATHASGIPTVDVVMTQLHAGGKFDSDAYAISGGLHGVGVSVVNALSTRLEVEIKRDGYEWSQVYEKSEPLGLKQGAPTKKTGSTVRFWADPAVFETTEYDFETVARRLQEMAFLNKGLTINLTDERVTQDEVVDEVVSDVAEAPKSASERAAESTAPHKVKSRTFHYPGGLVDFVKHINRTKNAIHSSIVDFSGKGTGHEVEIAMQWNAGYSESVHTFANTINTHEGGTHEEGFRSALTSVVNKYAKDRKLLKDKDPNLTGDDIREGLAAVISVKVSEPQFEGQTKTKLGNTEVKSFVQKVCNEQLTHWFEANPTDAKVVVNKAVSSAQARIAARKARELVRRKSATDIGGLPGKLADCRSTDPRKSELYVVEGDSAGGSAKSGRDSMFQAILPLRGKIINVEKARIDRVLKNTEVQAIITALGTGIHDEFDIGKLRYHKIVLMADADVDGQHISTLLLTLLFRFMRPLIENGHVFLAQPPLYKLKWQRSDPEFAYSDRERDGLLEAGLKAGKKINKEDGIQRYKGLGEMDAKELWETTMDPSVRVLRQVTLDDAAAADELFSILMGEDVDARRSFITRNAKDVRFLDV
B3: MtbGyrase with MtbGyrAI36F (protein)
chain 1: TDTTLPPDDSLDRIEPVDIEQEMQRSYIDYAMSVFVGRALPEVRDGLKPVHRRVLYAMFDSGFRPDRSHAKSARSVAETMGNYHPHGDASIYDSLVRMAQPWSLRYPLVDGQGNFGSPGNDPPAAMRYTEARLTPLAMEMLREIDEETVDFIPNYDGRVQEPTVLPSRFPNLLANGSGGIAVGMATNIPPHNLRELADAVFWALENHDADEEETLAAVMGRVKGPDFPTAGLIVGSQGTADAYKTGRGSIRMRGVVEVEEDSRGRTSLVITELPYQVNHDNFITSIAEQVRDGKLAGISNIEDQSSDRVGLRIVIEIKRDAVAKVVINNLYKHTQLQTSFGANMLAIVDGVPRTLRLDQLIRYYVDHQLDVIVRRTTYRLRKANERAHILRGLVKALDALDEVIALIRASETVDIARAGLIELLDIDEIQAQAILDMQLRRLAALERQRIIDDLAKIEAEIADLEDILAKPERQRGIVRDELAEIVDRHGDDRRTRIIAADGDVSDEDLIAREDVVVTITETGYAKRTKTDLYRSQKRGGKGVQGAGLKQDDIVAHFFVCSTHDLILFFTTQGRVYRAKAYDLPEASRTARGQHVANLLAFQPEERIAQVIQIRGYTDAPYLVLATRNGLVKKSKLTDFDSNRSGGIVAVNLRDNDELVGAVLCSAGDDLLLVSANGQSIRFSATDEALRPMGRATSGVQGMRFNIDDRLLSLNVVREGTYLLVATSGGYAKRTAIEEYPVQGRGGKGVLTVMYDRRRGRLVGALIVDDDSELYAVTSGGGVIRTAARQVRKAGRQTKGVRLMNLGEGDTLLAIARNAEESGDDNAVDANGADQTGN
chain 2: MAAQKKKAQDEYGAASITILEGLEAVRKRPGMYIGSTGERGLHHLIWEVVDNAVDEAMAGYATTVNVVLLEDGGVEVADDGRGIPVATHASGIPTVDVVMTQLHAGGKFDSDAYAISGGLHGVGVSVVNALSTRLEVEIKRDGYEWSQVYEKSEPLGLKQGAPTKKTGSTVRFWADPAVFETTEYDFETVARRLQEMAFLNKGLTINLTDERVTQDEVVDEVVSDVAEAPKSASERAAESTAPHKVKSRTFHYPGGLVDFVKHINRTKNAIHSSIVDFSGKGTGHEVEIAMQWNAGYSESVHTFANTINTHEGGTHEEGFRSALTSVVNKYAKDRKLLKDKDPNLTGDDIREGLAAVISVKVSEPQFEGQTKTKLGNTEVKSFVQKVCNEQLTHWFEANPTDAKVVVNKAVSSAQARIAARKARELVRRKSATDIGGLPGKLADCRSTDPRKSELYVVEGDSAGGSAKSGRDSMFQAILPLRGKIINVEKARIDRVLKNTEVQAIITALGTGIHDEFDIGKLRYHKIVLMADADVDGQHISTLLLTLLFRFMRPLIENGHVFLAQPPLYKLKWQRSDPEFAYSDRERDGLLEAGLKAGKKINKEDGIQRYKGLGEMDAKELWETTMDPSVRVLRQVTLDDAAAADELFSILMGEDVDARRSFITRNAKDVRFLDV
B4: MtbGyrase with MtbGyrAM33A (protein)
chain 1: TDTTLPPDDSLDRIEPVDIEQEMQRSYIDYAASVIVGRALPEVRDGLKPVHRRVLYAMFDSGFRPDRSHAKSARSVAETMGNYHPHGDASIYDSLVRMAQPWSLRYPLVDGQGNFGSPGNDPPAAMRYTEARLTPLAMEMLREIDEETVDFIPNYDGRVQEPTVLPSRFPNLLANGSGGIAVGMATNIPPHNLRELADAVFWALENHDADEEETLAAVMGRVKGPDFPTAGLIVGSQGTADAYKTGRGSIRMRGVVEVEEDSRGRTSLVITELPYQVNHDNFITSIAEQVRDGKLAGISNIEDQSSDRVGLRIVIEIKRDAVAKVVINNLYKHTQLQTSFGANMLAIVDGVPRTLRLDQLIRYYVDHQLDVIVRRTTYRLRKANERAHILRGLVKALDALDEVIALIRASETVDIARAGLIELLDIDEIQAQAILDMQLRRLAALERQRIIDDLAKIEAEIADLEDILAKPERQRGIVRDELAEIVDRHGDDRRTRIIAADGDVSDEDLIAREDVVVTITETGYAKRTKTDLYRSQKRGGKGVQGAGLKQDDIVAHFFVCSTHDLILFFTTQGRVYRAKAYDLPEASRTARGQHVANLLAFQPEERIAQVIQIRGYTDAPYLVLATRNGLVKKSKLTDFDSNRSGGIVAVNLRDNDELVGAVLCSAGDDLLLVSANGQSIRFSATDEALRPMGRATSGVQGMRFNIDDRLLSLNVVREGTYLLVATSGGYAKRTAIEEYPVQGRGGKGVLTVMYDRRRGRLVGALIVDDDSELYAVTSGGGVIRTAARQVRKAGRQTKGVRLMNLGEGDTLLAIARNAEESGDDNAVDANGADQTGN
chain 2: MAAQKKKAQDEYGAASITILEGLEAVRKRPGMYIGSTGERGLHHLIWEVVDNAVDEAMAGYATTVNVVLLEDGGVEVADDGRGIPVATHASGIPTVDVVMTQLHAGGKFDSDAYAISGGLHGVGVSVVNALSTRLEVEIKRDGYEWSQVYEKSEPLGLKQGAPTKKTGSTVRFWADPAVFETTEYDFETVARRLQEMAFLNKGLTINLTDERVTQDEVVDEVVSDVAEAPKSASERAAESTAPHKVKSRTFHYPGGLVDFVKHINRTKNAIHSSIVDFSGKGTGHEVEIAMQWNAGYSESVHTFANTINTHEGGTHEEGFRSALTSVVNKYAKDRKLLKDKDPNLTGDDIREGLAAVISVKVSEPQFEGQTKTKLGNTEVKSFVQKVCNEQLTHWFEANPTDAKVVVNKAVSSAQARIAARKARELVRRKSATDIGGLPGKLADCRSTDPRKSELYVVEGDSAGGSAKSGRDSMFQAILPLRGKIINVEKARIDRVLKNTEVQAIITALGTGIHDEFDIGKLRYHKIVLMADADVDGQHISTLLLTLLFRFMRPLIENGHVFLAQPPLYKLKWQRSDPEFAYSDRERDGLLEAGLKAGKKINKEDGIQRYKGLGEMDAKELWETTMDPSVRVLRQVTLDDAAAADELFSILMGEDVDARRSFITRNAKDVRFLDV

What follows are proteins tested against the compound of Formula IV.

Protein	compound-induced DNA cleavage compared to wildtype MtbGyrase
B1	reduced cleavage (5 to 100-fold)
B2	reduced cleavage (5 to 100-fold)
B3	reduced cleavage (5 to 100-fold)
B4	reduced cleavage (5 to 100-fold)
